Here are results for 20 molecules from patent US7056679.

To fix the notation:
B1: DGI-2-40F-3-C10 (peptide, not shown: large carriers)
peptide: WRARSSGYLFALTPNFGVPHPSSALRRMHGLMARDLRPVAAAGAPVPYPDPLEPRP
B2: DGI-2-40F-4-E1130 (peptide, not shown: large carriers)
peptide: VCRLCRLCRFSMRCGGLSLVLGSAAAFFCEVFVGFCVAAAGAPVPYPDPLEPRP
B3: DGI-2-40F-3-B4 (peptide, not shown: large carriers)
peptide: LWLPCGLLVRPAQFYFYFSPLRHFLSSSVGSLSFPLSLLVAAAGAPVPYPDPLEPRP
B4: DGI-2-40F-3-A1 (SEQ ID NO: 187) (peptide, not shown: large carriers)
peptide: QYFARGSFQFGLSHVLSAAAAFHLYVFCKRLSRGFGIKDDAAAGAPVPYPDPLEPRP
B5: DGI-2-40F-3-B6 (peptide, not shown: large carriers)
peptide: QSNVWVLVGVIMQGVWYQRQHYCVYVMLLSDQVSVLLAVAAAAGAPVPYPDPLEPRP
B6: DGI-2-40F-3-D1 (peptide, not shown: large carriers)
peptide: MGQGFHYNRQPYMSHQCYAFTFSTPFLDGDRIPHGVSRGLAAAGAPVPYPDPLEPRP
B7: DGI-2-40F-3-A7 (peptide, not shown: large carriers)
peptide: CAYRWGLFRGPGRVDYDLQVVGIMMWPGPIPDRSSRGSVAAAAGAPVPYPDPLEPRP
B8: DGI-2-40F-3-D3 (peptide, not shown: large carriers)
peptide: VQFAMTLSSRLWQHARHPLTDDAPPTVSFGTRRETLAGKAAAAGAPVPYPDPLEPRP
B9: DGI-2-40F-3-A8 (peptide, not shown: large carriers)
peptide: GQISLAGVAVCSSERMLLAFSSRVFLPGLKVPVTTSQRGSAAAGAPVPYPDPLEPRP
B10: DGI-2-40F-3-A12 (peptide, not shown: large carriers)
peptide: RRTQPAYRSGADDRTSGFYCYVTSALSAGAWMPFLPRRLAAAAGAPVPYPDPLEPRP
B11: DGI-2-40F-3-B1 (peptide, not shown: large carriers)
peptide: HGTRLRGVDYVMTWAGWQGYSSRKHVQQAVAGSSPGSDELAAAGAPVPYPDPLEPRP

The target in one test is antibody raised against ETAG. Description: phage ELISA, 405 nm; anti-E-tag antibody coated. Background: In an ELISA, binding on a coated surface is turned into a signal by an enzyme label.
Consider B1, for which the ETAG (OD) came out at 7.7 OD.
Same read-out and setting: next, LGNASSLIPFLRSVQESGVRAAAGAPVPYPDPLEPRP (peptide, not shown: large carriers) [DGI-2-20F-3-C5]: 17.7 OD.
On the same count and under the same terms, with DYKGRTMTSPIMSALPVYDRLHGAIGSRGQNMDAAAGAPVPYPDPLEPRP (peptide, not shown: large carriers) [DGI-2-20C-3-B3] the figure was 7.7 OD; with B2, 8.3 OD; with WFTHVVEKFAAAGAPVPYPDPLEPRP (peptide, not shown: large carriers) [DGI-2-40F-3-A4], 6.7 OD.
Same read-out and setting: next, GEVDCVYALTHRFLSPQVQYHHRPVAAAGAPVPYPDPLEPRP (peptide, not shown: large carriers) [DGI-2-20C-3-A12]: 8.1 OD.

In a further test the target is DGI-2 polypeptide (UniProt Q15004). Description: phage ELISA.
DGI-2 polypeptide, sequence (Q15004 whole entry): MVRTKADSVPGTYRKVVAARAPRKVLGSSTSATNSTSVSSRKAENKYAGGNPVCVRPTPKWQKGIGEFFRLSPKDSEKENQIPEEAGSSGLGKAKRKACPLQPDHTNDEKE
As to GRAGTSMTELVAWGFVQRVGAAAGAPVPYPDPLEPRP [DGI-2-20F-PP-H10], the DGI-2 (OD) came to 1.4 OD and the DGI-2/LDH stood at 1.9.

Another test has the same target. Description: phage ELISA, 405 nm; DGI-2 coated.
With B1, the DGI-2 (OD) came to 1.1 OD.
In the case of LGNASSLIPFLRSVQESGVRAAAGAPVPYPDPLEPRP (peptide, not shown: large carriers) [DGI-2-20F-3-C5], the DGI-2 (OD) amounted to 1 OD.
Still for that read-out and setting: with DYKGRTMTSPIMSALPVYDRLHGAIGSRGQNMDAAAGAPVPYPDPLEPRP (peptide, not shown: large carriers) [DGI-2-20C-3-B3] the figure was 0.8 OD.
Regarding B2, the DGI-2 (OD) was 2.9 OD.
Same read-out and setting: with WFTHVVEKFAAAGAPVPYPDPLEPRP (peptide, not shown: large carriers) [DGI-2-40F-3-A4] the figure was 1.1 OD; with GEVDCVYALTHRFLSPQVQYHHRPVAAAGAPVPYPDPLEPRP (peptide, not shown: large carriers) [DGI-2-20C-3-A12], 0.9 OD.

Another test concerns the target lactate dehydrogenase (LDH). Description: phage ELISA; LDH coated.
For the molecule SRLALSSQHGLSLVAGRRRGGAPVPYPDPLEPR (peptide, not shown: large carriers) [DGI9-20M-4-A12], the LDH (ratio over background) was found to be 0.9.
Turning to FLLQDFIMDAGSFVKPIGVGGAPVPYPDPLEPR (peptide, not shown: large carriers) [DGI9-20M-4-A414], the LDH (ratio over background) turned out to be 1.1.
The same measure, in the same setting: next, WDWSRFGAQLRGAILGRATGGAPVPYPDPLEPR (peptide, not shown: large carriers) [DGI9-20M-4-A627]: 0.9.
Same read-out and setting: with MAGFRGSGLSGYSEARLPRVGAPVPYPDPLEPR (peptide, not shown: large carriers) [DGI9-20M-4-E3] the figure was 1.

For another test, the target named is lactate dehydrogenase (LDH). Description: phage ELISA, 405 nm; LDH coated.
The molecule B3 came in with an LDH (OD) of 0.8 OD.
Regarding B4, the LDH (OD) was 0.7 OD.
On the same count and under the same terms, with B1 the figure was 0.9 OD.
On the same count and under the same terms, with B5 the figure was 0.8 OD.
On the same count and under the same terms, next, B6: 0.8 OD; LGNASSLIPFLRSVQESGVRAAAGAPVPYPDPLEPRP (peptide, not shown: large carriers) [DGI-2-20F-3-C5]: 0.9 OD; DYKGRTMTSPIMSALPVYDRLHGAIGSRGQNMDAAAGAPVPYPDPLEPRP (peptide, not shown: large carriers) [DGI-2-20C-3-B3]: 0.9 OD.
For the molecule B7, the LDH (OD) was determined as 0.8 OD.
Consider B8, for which the LDH (OD) was found to be 0.9 OD.
On the same count and under the same terms, with B9 the figure was 0.8 OD; with B2, 0.9 OD.
As to WFTHVVEKFAAAGAPVPYPDPLEPRP (peptide, not shown: large carriers) [DGI-2-40F-3-A4], the LDH (OD) turned out to be 0.8 OD.
The same measure, in the same setting: with B10 the figure was 0.8 OD.
In turn, GEVDCVYALTHRFLSPQVQYHHRPVAAAGAPVPYPDPLEPRP (peptide, not shown: large carriers) [DGI-2-20C-3-A12] registered an LDH (OD) of 0.9 OD.
On the same count and under the same terms, next, B11: 0.7 OD.

The target of the next test is DGI-2 polypeptide (UniProt Q15004). Description: phage ELISA, 405 nm; DGI-2 signal over LDH signal.
Take B1: the DGI-2/LDH (OD) was 1.3.
The same measure, in the same setting: with LGNASSLIPFLRSVQESGVRAAAGAPVPYPDPLEPRP (peptide, not shown: large carriers) [DGI-2-20F-3-C5] the figure was 1; with DYKGRTMTSPIMSALPVYDRLHGAIGSRGQNMDAAAGAPVPYPDPLEPRP (peptide, not shown: large carriers) [DGI-2-20C-3-B3], 0.9.
Same read-out and setting: next, B2: 3.2; WFTHVVEKFAAAGAPVPYPDPLEPRP (peptide, not shown: large carriers) [DGI-2-40F-3-A4]: 1.3; GEVDCVYALTHRFLSPQVQYHHRPVAAAGAPVPYPDPLEPRP (peptide, not shown: large carriers) [DGI-2-20C-3-A12]: 1.
